According to PMC10370305, “Functional Degeneracy in Paracoccus denitrificans Pd1222 Is Coordinated via RamB, Which Links Expression of the Glyoxylate Cycle to Activity of the Ethylmalonyl-CoA Pathway” (Applied and Environmental Microbiology, 2023):

Key:
RamBPd (Pden_1365) [1] = biological target: T1, RamBPd (Pden_1365) (Paracoccus denitrificans, UniProt A1B1S2); test: mass photometry titration (tetramer to dimer shift; saturation at […], […] dimer to tetramer); format: binding
T1 construct: purified RamBPd, His-SUMO tag cleaved off
T1 sequence (A1B1S2 1-477): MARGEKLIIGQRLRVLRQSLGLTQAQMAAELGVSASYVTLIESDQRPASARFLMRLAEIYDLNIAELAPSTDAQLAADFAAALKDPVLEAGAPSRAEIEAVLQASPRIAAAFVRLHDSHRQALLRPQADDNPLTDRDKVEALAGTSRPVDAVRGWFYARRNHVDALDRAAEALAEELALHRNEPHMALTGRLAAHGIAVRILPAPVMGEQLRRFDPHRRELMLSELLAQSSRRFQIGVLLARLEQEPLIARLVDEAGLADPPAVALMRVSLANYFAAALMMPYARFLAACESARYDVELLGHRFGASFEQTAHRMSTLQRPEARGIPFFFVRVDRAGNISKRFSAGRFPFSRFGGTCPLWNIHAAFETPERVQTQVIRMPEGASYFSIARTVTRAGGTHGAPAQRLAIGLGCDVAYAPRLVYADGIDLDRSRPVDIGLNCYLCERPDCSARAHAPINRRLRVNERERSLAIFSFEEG

RamBPd (Pden_1365) [2] = biological target: T1, RamBPd (Pden_1365); test: mass photometry titration (tetramer to dimer shift); format: binding
[3] = biological target: RamBPd (Pden_1365), regulator of acetate metabolism of Paracoccus denitrificans Pd1222 (Paracoccus denitrificans Pd1222); test: mass photometry; 250 nM RamBPd in PBS (pH 7.4), no supplement; Refeyn One mass photometer
[4] = biological target: RamBPd (Pden_1365), regulator of acetate metabolism of Paracoccus denitrificans Pd1222 (Paracoccus denitrificans Pd1222); test: mass photometry; 250 nM RamBPd in PBS (pH 7.4), pre-incubated for 35 min with rising concentrations of free CoA or of a CoA ester (ethylmalonyl-, methylsuccinyl-, mesaconyl-, crotonyl-, beta-methylmalyl-CoA); tetramer to dimers

With `CC(C)(COP(=O)(O)OP(=O)(O)OC[C@H]1O[C@@H](n2cnc3c(N)ncnc32)[C@H](O)[C@@H]1OP(=O)(O)O)[C@@H](O)C(=O)NCCC(=O)NCCS` [CoA] the “mass photometry titration (tetramer to dimer shift); saturation at 62.5 μM, 1:1 d” value (RamBPd (Pden_1365) [1]) was “tetrameric RamBPd complex dissociates into a dimer upon the addition of CoA”.
With `C[C@@H](C(=O)SCCNC(=O)CCNC(=O)[C@H](O)C(C)(C)COP(=O)(O)OP(=O)(O)OC[C@H]1O[C@@H](n2cnc3c(N)ncnc32)[C@H](O)[C@@H]1OP(=O)(O)O)[C@H](O)C(=O)O` [β-methylmalyl-CoA] the Kd (RamBPd (Pden_1365) [2]) was roughly 700 µM.
For “RamBPd (Pden_1365), regulator of acetate metabolism of Paracoccus denitrificans Pd1222 (natural protein)”, the stoichiometry N [3] was 4, the ratio of dimer to tetramer at saturation with 62.5 uM free CoA (dimer:tetramer) [4] was 1 and the ratio of dimers to tetramers with beta-methylmalyl-CoA (dimer:tetramer) [4] was 9. It also gave a ratio of dimers to tetramers with crotonyl-CoA (dimer:tetramer) [4] of 3, a ratio of dimers to tetramers with mesaconyl-CoA (dimer:tetramer) [4] of 3 and a stoichiometry N [4] of 2.
